Experimental data published in US20170275344A1, “POLYPEPTIDES AND USES THEREOF AS A DRUG FOR TREATMENT OF AUTOIMMUNE DISORDERS” (Compugen Ltd., priority 2014, published 2017).

Experiments:
[1] = tested on: healthy human skin transplanted onto beige-SCID mice; test: Humanized psoriasis model: healthy human skin xenotransplants on beige-SCID mice injected with psoriatic patients' PBMCs; type: in vivo, mouse; details: IHC, vs PBS treated group
Source text: In this model, psoriasis is induced in xenotransplants of healthy human skin transplanted onto beige severe combined immunodeficiency (SCID) mice followed by intradermal (i.d.) injection of IL-2 enriched Peripheral Blood Mononuclear Cells (PBMCs) isolated from blood of psoriasis patients (Nickoloff, 1995; Wrone-Smith, 1996 Gilhar et al., 2002, 2006, 2011). The activity of these compounds was compared to that of Enbrel, a TNF inhibitor which is an approved biological drug for treatment of psoriasis. As a control for model robustness, we used dexamethasone, a steroid with suppressive effects on inflammatory cytokines and chemokines such as TNF-alpha and interferon-gamma which cause severe psoriasis. All treatments were administered intradermally, except for dexamethasone which was given topically.
Study Protocol: A) Healthy human skin pieces with a width of 0.4 mm and surface area of 1.5×1.5 cm were provided from residual skin of routine plastic surgery procedures from the Plastic Surgery Department of the Rambam Medical Center, Israel. In addition, 20 mL blood samples were taken from psoriatic patients. B) Seventy (70) beige-severe combined immunodeficient mice (SCID) (weight˜20-25 g) were included in this study. Normal healthy human donor skin was transplanted onto the beige-SCID mice as previously described (Nickoloff et al., 1995; Wrone-Smith, 1996; Gilhar et al., 2002, 2006, 2011; Kalish et al., 2009) and the mice were divided into 7 groups. C) Peripheral Blood Mononuclear Cells (PBMCs) isolated from psoriatic patients' blood were cultured in the presence of IL-2 [Prospec, 100 U/mL of RPMI 1640 media, 10% human AB serum (Sigma, St. Louis, Mo.), 1% glutamine, 1% antibiotics (media components; Biological Industries, Kibbutz Beit Haemeck, Israel)] for 14 days, as previously described (Gilhar et al, 2002). D) Four weeks following engraftment, each mouse was injected intra-dermally (i.d.) into the grafted skin lesion, with 1×10^7 activated allogeneic enriched PBMCs from psoriatic patients (FIG. 20). Cells from different psoriasis patients were equally distributed between treatment groups so that each patient is represented in each treatment group. E) On the day of PBMCs injection into the skin grafts, mice were divided randomly into treatment groups (n=9-10 mice per group) and administration of all drugs started (FIG. 20). All tested compounds including the vehicle were given intradermally (intralesional), three times a week, except for dexamethasone which was given topically for 14 consecutive days (Table 3).
F) Twenty eight days after starting the injections and treatment, skin was harvested (FIG. 20). Grafts were analyzed for the following psoriatic parameters by histology: epidermal thickening (acanthosis), suprapapillary epidermal thinning (papillomatosis), hyperkeratosis, parakeratosis, orthokeratosis, agranulosis-hypogranulosis, appearance of neutrophils in the upper spinous layer or in the corneal cell layer—Munro microabscess, regular elongation of rete ridges, angiogenesis, edema and dilated tortuous blood vessels in the dermal papilla and mononuclear cell infiltrate in the papillary dermis. Epidermal thickness was measured as detailed below, and HLA-DR, ICAM-1, Ki-67 and immune infiltrates (anti-CD3 stain) were evaluated by immunohistochemistry (IHC).
The entire skin graft was excised and placed in 10% formal saline overnight. Then, the specimens were place in 70% ethanol and were embedded according to the standard H&E protocol. Histological assessment of the skin grafts was performed by light microscopy and evaluated by two blinded observers [the second observer evaluated random slides (about 25% of all slides) to compare the data obtained by the first observer. […] Epidermal thickness was determined with an ocular micrometer at a minimum of 50 points along the epidermis selected to represent points of maximal and minimal thickness.
Representative grafts were allocated for IHC analysis. […]

[2] = tested on: SJL/J mice; test: Trafficking of transferred PLP139-151 sensitized cells into the CNS (flow cytometry); type: in vivo, mouse
Description: PLP139-151 sensitized cells were generated as described in Materials and Methods (cell counts in the reactivation culture are presented in Table 2) and labeled with PBSE (4 uM) before transfer to naïve mice. In study “Cgen data” (FIG. 12), disease was induced in recipient mice (n=10 per group) by i.v. transfer of 5×10^6 blast cells to each recipient mouse. A relatively large number of transferred cells were used in order to allow detection of the transferred cells by flow cytometry analysis at the end of the study. Mice were split into Control Ig and C1ORF32 ECD-Fc (SEQ ID NO:42) treatment groups, receiving 100 ug/dose intraperitoneal injection three times per week for 2 weeks. On Day +14 after cell transfer, 5 representative mice from each group were selected for analysis of trafficking of transferred cells into the CNS. Spleens, cervical lymph nodes, and CNS were collected, and the number of PBSE- or PBSE+/CD45+/CD3+/CD4+ T cells was analyzed by flow cytometric analysis.
An additional experiment (designated “MYC48 FACS”, FIG. 13) was performed using an alternative staining follow-up approach. SJL-Actin/GFP mice were primed with PLP139-151/CFA, and sensitized blast cells were generated as described in Materials and Methods (cell counts in the reactivation culture are presented in Table 2). On Day +3 of culture, PLP139-151 sensitized cells were collected and labeled with PBSE (4 uM). Disease was induced in the recipient mice (n=10 per group), by i.v. transfer of 5×10^6 blast cells/mouse. Beginning at the time of cell transfer, mice were treated with Control Ig or C1ORF32 ECD-Fc (SEQ ID NO:42) (100 ug/dose i.p. three times per week for 2 weeks). […] To evaluate C1ORF32 ECD-Fc (SEQ ID NO:42) effect on immune cell trafficking to the CNS, spleens, cervical lymph nodes, and CNS cells collected form 5 mice on day +10 post cell transfer, and the number of transferred CD45hi PBSE+ or GFP+ cells was analyzed by flow cytometry. […]

B1: C1ORF32 ECD-Fc (SEQ ID NO:42): fusion protein of human C1ORF32 ECD fused to mouse immunoglobulin Fc (human-mouse fusion protein) (protein)
chain: LQVTVPDKKKVAMLFQPTVLRCHFSTSSHQPAVVQWKFKSYCQDRMGESLGMSSTRAQSLSKRNLEWDPYLDCLDSRRTVRVVASKQGSTVTLGDFYRGREITIVHDADLQIGKLMWGDSGLYYCIITTPDDLEGKNEDSVELLVLGRTGLLADLLPSFAVEIMGSENLYFQGSGEPRGPTIKPCPPCKCPAPNLLGGPSVFIFPPKIKDVLMISLSPIVTCVVVDVSEDDPDVQISWFVNNVEVHTAQTQTHREDYNSTLRVVSALPIQHQDWMSGKEFKCKVNNKDLPAPIERTISKPKGSVRAPQVYVLPPPEEEMTKKQVTLTCMVTDFMPEDIYVEWTNNGKTELNYKNTEPVLDSDGSYFMYSKLRVEKKNWVERNSYSCSVVHEGLHNHHTTKSFSRTPGK
modifications: Fusion protein human C1ORF32-ECD fused to mouse IgG2a Fc
[1]
  infiltration of T cells (CD3 positive cells): significant reduction of CD3 positive cells
[2]; study Cgen data, treatment from time of cell transfer
  number of transferred CD4+ T cells within the CNS: decrease
[2]; study MYC48 FACS, day +10
  number of total or activated transferred T cells in the spleen and cervical lymph nodes: No change
[2]; study MYC48 FACS, day +10 post cell transfer
  number of GFP+ and PBSE+ transferred cells in the CNS: decrease
